According to patent US20190002587A1 (AROCELL, published 2019):
Where no end group is shown, it is not given here.

T1: human recombinant TK1 (human, UniProt P04183 1-234, limits assumed)
T1 construct: also called human rTK1; rTK1
T1 sequence (looked up): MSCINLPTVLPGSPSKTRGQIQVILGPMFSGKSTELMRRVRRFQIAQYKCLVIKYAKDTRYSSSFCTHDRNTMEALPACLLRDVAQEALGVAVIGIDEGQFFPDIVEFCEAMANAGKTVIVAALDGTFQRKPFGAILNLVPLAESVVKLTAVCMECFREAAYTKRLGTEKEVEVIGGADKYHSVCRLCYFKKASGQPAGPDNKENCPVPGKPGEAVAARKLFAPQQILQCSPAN

T2: NCPVPGKPGE (human, also: biotinylated)
T2 construct: also called peptide 7
T2 peptide: NCPVPGKPGE

T3: AVAARKLFAP (human, also: biotinylated)
T3 peptide: AVAARKLFAP

T4: PAGPDNKENC (human, also: biotinylated)
T4 peptide: PAGPDNKENC

T5: ARKLFAPQQI (human, also: biotinylated, position not given here)
T5 peptide: ARKLFAPQQI

T6: GQPAGPDNKE (human, also: biotinylated)
T6 peptide: GQPAGPDNKE

T7: KENCPVPGKP (human, also: biotinylated)
T7 peptide: KENCPVPGKP

T8: PGKPGEAVAA (human, also: biotinylated)
T8 peptide: PGKPGEAVAA

T9: ASGQPAGPDN (human, also: biotinylated, position not given here)
T9 peptide: ASGQPAGPDN

T10: XPA 210 peptide (human, immobilized on streptavidin coated plate (biotinylated) in the Pepscan)
T10 construct: also called 31-mer; 31-mer peptide
T10 peptide: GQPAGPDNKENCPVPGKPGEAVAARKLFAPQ

T11: AARKLFAPQQ (human, also: biotinylated, position not given here)
T11 peptide: AARKLFAPQQ

T12: GPDNKENCPV (human, also: biotinylated)
T12 peptide: GPDNKENCPV

T13: PVPGKPGEAV (human, also: biotinylated)
T13 construct: also called peptide 8
T13 peptide: PVPGKPGEAV

T14: GEAVAARKLF (human, also: biotinylated)
T14 construct: also called 10-mer; 10-mer peptide
T14 peptide: GEAVAARKLF

T15: KPGEAVAARK (human, also: biotinylated)
T15 peptide: KPGEAVAARK

T16: DNKENCPVPG (human, also: biotinylated)
T16 peptide: DNKENCPVPG


Experiments:
human recombinant TK1 [1] = molecular target: T1, human recombinant TK1; test: Attana 200 quartz crystal microbalance biosensor, antibody captured by anti-mouse IgG, rTK1 injected, 1:1 model
Method: (§1) In the experiment shown in FIGS. 8A and 8B an LNB Carboxyl sensor chip was used, which was pre-reacted with the Mouse IgG capture kit (Biacore, GE Healthcare) with the amine coupling procedure. The ligands were XPA 210-Ar1 and XPA 210-Ar2 and they were captured to the surface with anti-mouse antibodies by two injections of 50 μg/ml antibody solutions in a 10 mM acetate buffer pH 4.5. An identically treated chip without the capture antibody was used a negative control. Pure recombinant TK1, diluted to 20 μg/ml in 10 mM HEPES, 150 mM NaCl, 0.005% Tween 20, pH 7.4, was injected over the surface at 25 μl/min. The association time was 84 s and the dissociation was measured for another 300 s. Buffer without recombinant TK1 was injected as a blank and subtracted from the sample injection signals.
(§2) An 1:1 binding model was used for calculation of the kinetic constants from the fitted curves of the double reference data as shown in FIGS. 8A and 8B.

human recombinant TK1 [2] = molecular target: T1, human recombinant TK1; test: Attana quartz crystal microbalance, antibody captured by anti-mouse IgG on the chip, recombinant TK1 injected at 20 to 1.25 ug/ml, 1:1 binding model
Method: as §1, §2

NCPVPGKPGE [3] = molecular target: T2, NCPVPGKPGE; test: Pepscan ELISA, peptide on streptavidin plate
Method: (§3) In order to determine the amino acid region to which the selected monoclonal antibodies bind a Pepscan analysis with biotinylated 10 amino acid target peptides was carried out. The procedure is based on synthesis of a set of 14 ten-mer amino acid peptides representing the region from 193 to 226 of the TK1 sequence as shown in connection with Example 1. Each peptide has an eight amino acids overlap and two amino acids gaps, leading to a set of 14 different peptides, see Table 2. The entire full-length peptide is also included and all these peptides were immobilized on a streptavidine coated microtiter plate. After a 1 hour adsorption step the plates were washed with PBS, 1% BSA and 0.1% Tween 20. The different antibodies were then added at approximately 5 μg/ml and the plates were incubated for 1 hour, followed by washing three times. Then a HRP conjugate was added and incubated for 1 hour. The plates were then washed six times with the same buffer. Finally the absorbance was determined with 100 μl 3,3′,5,5′-tetramethylbenzidine (TMB) substrate and the results from one test with a series of antibodies are shown in Table 2.

AVAARKLFAP [4] = molecular target: T3, AVAARKLFAP; test: Pepscan ELISA, peptide on streptavidin plate
Method: as §3

PAGPDNKENC [5] = molecular target: T4, PAGPDNKENC; test: Pepscan ELISA, peptide on streptavidin plate
Method: as §3

ARKLFAPQQI [6] = molecular target: T5, ARKLFAPQQI; test: Pepscan ELISA, peptide on streptavidin plate
Method: as §3

GQPAGPDNKE [7] = molecular target: T6, GQPAGPDNKE; test: Pepscan ELISA, peptide on streptavidin plate
Method: as §3

KENCPVPGKP [8] = molecular target: T7, KENCPVPGKP; test: Pepscan ELISA, peptide on streptavidin plate
Method: as §3

PGKPGEAVAA [9] = molecular target: T8, PGKPGEAVAA; test: Pepscan ELISA, peptide on streptavidin plate
Method: as §3

ASGQPAGPDN [10] = molecular target: T9, ASGQPAGPDN; test: Pepscan ELISA, peptide on streptavidin plate
Method: as §3

XPA 210 peptide = molecular target: T10, XPA 210 peptide; test: Pepscan ELISA, peptide on streptavidin plate
Method: as §3

AARKLFAPQQ [11] = molecular target: T11, AARKLFAPQQ; test: Pepscan ELISA, peptide on streptavidin plate
Method: as §3

GPDNKENCPV [12] = molecular target: T12, GPDNKENCPV; test: Pepscan ELISA, peptide on streptavidin plate
Method: as §3

PVPGKPGEAV [13] = molecular target: T13, PVPGKPGEAV; test: Pepscan ELISA, peptide on streptavidin plate
Method: as §3

GEAVAARKLF [14] = molecular target: T14, GEAVAARKLF; test: Pepscan ELISA, peptide on streptavidin plate
Method: as §3

KPGEAVAARK [15] = molecular target: T15, KPGEAVAARK; test: Pepscan ELISA, peptide on streptavidin plate
Method: as §3

DNKENCPVPG [16] = molecular target: T16, DNKENCPVPG; test: Pepscan ELISA, peptide on streptavidin plate
Method: as §3

NCPVPGKPGE [17] = molecular target: T2, NCPVPGKPGE; test: Pepscan ELISA
Method: as §3

AVAARKLFAP [18] = molecular target: T3, AVAARKLFAP; test: Pepscan ELISA
Method: as §3

PAGPDNKENC [19] = molecular target: T4, PAGPDNKENC; test: Pepscan ELISA
Method: as §3

ARKLFAPQQI [20] = molecular target: T5, ARKLFAPQQI; test: Pepscan ELISA
Method: as §3

GQPAGPDNKE [21] = molecular target: T6, GQPAGPDNKE; test: Pepscan ELISA
Method: as §3

KENCPVPGKP [22] = molecular target: T7, KENCPVPGKP; test: Pepscan ELISA
Method: as §3

PGKPGEAVAA [23] = molecular target: T8, PGKPGEAVAA; test: Pepscan ELISA
Method: as §3

ASGQPAGPDN [24] = molecular target: T9, ASGQPAGPDN; test: Pepscan ELISA
Method: as §3

AARKLFAPQQ [25] = molecular target: T11, AARKLFAPQQ; test: Pepscan ELISA
Method: as §3

GPDNKENCPV [26] = molecular target: T12, GPDNKENCPV; test: Pepscan ELISA
Method: as §3

PVPGKPGEAV [27] = molecular target: T13, PVPGKPGEAV; test: Pepscan ELISA
Method: as §3

GEAVAARKLF [28] = molecular target: T14, GEAVAARKLF; test: Pepscan ELISA
Method: as §3

KPGEAVAARK [29] = molecular target: T15, KPGEAVAARK; test: Pepscan ELISA
Method: as §3

DNKENCPVPG [30] = molecular target: T16, DNKENCPVPG; test: Pepscan ELISA
Method: as §3

Binder | absorbance at 415 nm (NCPVPGKPGE [3]) [absorbance] | absorbance at 415 nm (AVAARKLFAP [4]) [absorbance] | absorbance at 415 nm (PAGPDNKENC [5]) [absorbance] | absorbance at 415 nm (ARKLFAPQQI [6]) [absorbance] | absorbance at 415 nm (GQPAGPDNKE [7]) [absorbance] | absorbance at 415 nm (KENCPVPGKP [8]) [absorbance] | absorbance at 415 nm (PGKPGEAVAA [9]) [absorbance] | absorbance at 415 nm (ASGQPAGPDN [10]) [absorbance] | absorbance at 415 nm (XPA 210 peptide) [absorbance] | absorbance at 415 nm (AARKLFAPQQ [11]) [absorbance] | absorbance at 415 nm (GPDNKENCPV [12]) [absorbance] | absorbance at 415 nm (PVPGKPGEAV [13]) [absorbance] | absorbance at 415 nm (GEAVAARKLF [14]) [absorbance] | absorbance at 415 nm (KPGEAVAARK [15]) [absorbance] | absorbance at 415 nm (DNKENCPVPG [16]) [absorbance] | also measured
XPA 210-Ar1 (antibody, V domains shown, Mouse monoclonal from hybridoma; also called monoclonal antibody XPA 210-Ar1) VH: QVQLQQSGAELVRPGASMKLSCKALGYTLTDYEMHWVKQTPAHGLEWIGAIHPGYGGTAYNQKFKGKATLTADKSSSTAYMELSSLTSEDSAVYYCTTFITKFDYWGQGTTLTVSS VL: not shown | 0.114 | 0.125 | 0.12 | 0.13 | 0.108 | 0.109 | 0.112 | 0.113 | 3.84 | 0.137 | 0.112 | 0.115 | 3.51 | 0.116 | 0.108 | Kd (human recombinant TK1 [1]): 650 pM; koff (human recombinant TK1 [2]): 1.61e-05 s⁻¹; kon (human recombinant TK1 [2]): 24800 M⁻¹ s⁻¹
XPA 210-Ar2 (antibody, V domains shown, Mouse monoclonal from hybridoma; also called Sup-162; XPA-Ar2) VH: QVQLQQSGAELVRPGASVKLSCKALGYTFTDYEMHWVRQTPVHGLEWIGAILPGSGGTAYNQKFKGKATLTADKSSSTAYMELSSLTSEDSAVYYCTTLITTFDYWGQGTTLTVSS VL: not shown | 0.064 | 0.077 | 0.063 | 0.063 | 0.064 | 0.063 | 0.067 | 0.067 | 3.79 | 0.066 | 0.063 | 0.067 | 0.072 | 0.072 | 0.063 | binding result (NCPVPGKPGE [17]): no binding (tested: approximately 5 µg/ml); binding result (AVAARKLFAP [18]): no binding (tested: approximately 5 µg/ml); binding result (PAGPDNKENC [19]): no binding (tested: approximately 5 µg/ml); binding result (ARKLFAPQQI [20]): no binding (tested: approximately 5 µg/ml); binding result (GQPAGPDNKE [21]): no binding (tested: approximately 5 µg/ml); binding result (KENCPVPGKP [22]): no binding (tested: approximately 5 µg/ml); binding result (PGKPGEAVAA [23]): no binding (tested: approximately 5 µg/ml); binding result (ASGQPAGPDN [24]): no binding (tested: approximately 5 µg/ml); binding result (AARKLFAPQQ [25]): no binding (tested: approximately 5 µg/ml); binding result (GPDNKENCPV [26]): no binding (tested: approximately 5 µg/ml); binding result (PVPGKPGEAV [27]): no binding (tested: approximately 5 µg/ml); binding result (GEAVAARKLF [28]): no binding (tested: approximately 5 µg/ml); binding result (KPGEAVAARK [29]): no binding (tested: approximately 5 µg/ml); binding result (DNKENCPVPG [30]): no binding (tested: approximately 5 µg/ml)
XPA 210-Ar3 (antibody, V domains shown, Mouse monoclonal from hybridoma; also called Sup-165) VH: DVQLQESGPDLVKPSQSLSLTCTVTGYSITSGYSWHWIRQFPGNKLEWLGYIHYSGSTTYNPSLKGRISITRDTSKNQFFLQLNSVTTEDTATYYCARWGTGHWYFDVWAAGTTVTVSS VL: QAVVTQESALTTSPGKTVTLTCRSSTGAVTTTNYANWVQEKPDHLFTGLIGGTNNRVPGVPARFSGSLIGDKAALTITGAQTEDEAIYFCALWYSNHWVFGGGTKLTVL | 1.99 | 0.062 | 0.055 | 0.062 | 0.057 | 0.058 | 0.059 | 0.057 | 0.136 | 0.06 | 0.06 | 1.84 | 0.057 | 0.059 | 0.059 | –
